Reference: article PMC3276697 (Traffic (Copenhagen, Denmark), 2012)

Target: T1, Vps4(E233Q), the ATP-locked form of Vps4 (S. cerevisiae, UniProt P52917 1-437, E233Q)
T1 sequence (looked up): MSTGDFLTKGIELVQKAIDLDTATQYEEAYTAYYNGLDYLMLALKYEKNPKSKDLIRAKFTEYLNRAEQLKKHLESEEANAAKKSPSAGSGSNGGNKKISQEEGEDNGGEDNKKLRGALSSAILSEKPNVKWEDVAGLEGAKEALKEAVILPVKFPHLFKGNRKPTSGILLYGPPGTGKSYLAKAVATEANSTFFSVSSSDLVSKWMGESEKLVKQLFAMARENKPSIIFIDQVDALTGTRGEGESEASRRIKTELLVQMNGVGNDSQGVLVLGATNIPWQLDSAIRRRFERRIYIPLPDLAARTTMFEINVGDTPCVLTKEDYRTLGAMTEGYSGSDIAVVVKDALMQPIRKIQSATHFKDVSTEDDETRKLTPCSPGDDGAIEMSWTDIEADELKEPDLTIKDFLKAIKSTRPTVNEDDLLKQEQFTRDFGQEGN
Assay: pull-down

B1: GST-Did2(CT) (amino acids 113-204), the C-terminal half of Did2 (domain or fragment, S. cerevisiae, UniProt P69771 113-204, looked up)
chain: QQITMIMDKFEQQFEDLDTSVNVYEDMGVNSDAMLVDNDKVDELMSKVADENGMELKQSAKLDNVPEIKAKEVNVDDEKEDKLAQRLRALRG
B1: binds.
